The values below come from patent publication US20040180443, “Methods for transfer of DNA segments” (Stratagene, published 2004).

The target in this data set is Cre recombinase (Bacteriophage P1?, UniProt P06956 P06956:1-343). As to the kind of experiment: in vitro loxP x loxP plasmid co-integration, 50 mM Tris pH 7.5, 10 mM MgCl2, 30 mM NaCl, 37 C 45 min; read out by product vector rescue in E. coli (1.2x10^4 and 8.2x10^5 colonies per ug second vector). Particulars: tags: Stratagene; chain copies: 4. The method, then: To rescue the product vector from the co-integrate vector, chemically competent XL1-blue or XL10 gold (kanR) (both strains from Stratagene, LaJolla, Calif.) were transformed with the above recombination reaction. Either strain has high transformation efficiencies and carries the F′ plasmid required to render the host infectable by filamentous phages such as f1. Transformation was performed by mixing 2.5 μl of the recombination reaction with 100 μl of competent cells, incubation on ice for 20 minutes and subsequent hear shock at 42° C. for 45 seconds. After the heat shock, 1 ml of 1×NZY, 10 μl of Exassist helper phage (10⁸ pfu; Stratagene, LaJolla, Calif.) and 100 μl of a fresh stationary culture of XLOLR-S^R were added and incubated for 2 hours at 37° C. while shaking. The XLOLR-S^R strain serves as the secondary host. The secondary host can be selected for with Streptomycin. Exassist is used as a helper phage allowing packaging of the rescued single-stranded product vector. […]
Plasmid DNA of 18 blue colonies were analyzed by restriction digestion. […] All white colonies analyzed by restriction digestion were indistinguishable from the second vector and presumably resulted form mutations in the rpsL insert serving as the negative selectable marker. […]

Chain of Cre recombinase (P06956 whole entry, one chain of several): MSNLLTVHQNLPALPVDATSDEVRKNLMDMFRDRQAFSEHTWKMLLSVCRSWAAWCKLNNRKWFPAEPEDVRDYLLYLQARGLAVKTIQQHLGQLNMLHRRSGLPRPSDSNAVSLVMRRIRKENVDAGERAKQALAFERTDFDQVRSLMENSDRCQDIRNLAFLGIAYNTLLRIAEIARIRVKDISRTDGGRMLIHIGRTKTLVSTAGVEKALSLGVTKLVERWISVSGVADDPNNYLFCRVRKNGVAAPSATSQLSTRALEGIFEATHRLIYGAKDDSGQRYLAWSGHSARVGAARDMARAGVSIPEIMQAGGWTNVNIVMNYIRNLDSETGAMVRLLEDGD

B1: loxP site (wild type) in first and second vectors (dsDNA)
DNA 1: CGAATTGGAGCTATAACTTCGTATAATGTATGCTATACGAAGTTATCATATGGCGGTGGCGGCCGCTCTAGAAC
DNA 2: GTTCTAGAGCGGCCGCCACCGCCATATGATAACTTCGTATAGCATACATTATACGAAGTTATAGCTCCAATTCG
With B1, the binding result is reported as “binds”.
